These are literature values, as cited in PMC6092819.

This series addresses Kv1.3 (Homo sapiens) (UniProt P22001).
UniProt P22001, sequence (P22001 whole entry): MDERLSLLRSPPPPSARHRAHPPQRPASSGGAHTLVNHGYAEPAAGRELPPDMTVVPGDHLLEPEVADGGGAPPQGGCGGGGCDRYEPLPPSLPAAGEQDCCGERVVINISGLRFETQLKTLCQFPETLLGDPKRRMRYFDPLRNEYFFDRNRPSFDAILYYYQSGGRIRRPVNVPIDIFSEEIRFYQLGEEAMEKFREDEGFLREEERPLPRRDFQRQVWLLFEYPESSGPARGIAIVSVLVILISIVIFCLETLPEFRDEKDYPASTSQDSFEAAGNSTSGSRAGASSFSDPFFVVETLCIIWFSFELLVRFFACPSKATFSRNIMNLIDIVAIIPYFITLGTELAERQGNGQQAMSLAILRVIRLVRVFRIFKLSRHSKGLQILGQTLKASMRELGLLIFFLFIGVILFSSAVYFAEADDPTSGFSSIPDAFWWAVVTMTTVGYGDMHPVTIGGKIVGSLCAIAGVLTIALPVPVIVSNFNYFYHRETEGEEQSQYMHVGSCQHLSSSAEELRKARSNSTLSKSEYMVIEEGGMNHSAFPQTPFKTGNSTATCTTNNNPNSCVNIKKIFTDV

A word on the Kd: it is the equilibrium constant for the complex coming apart. ShK (from UniProt P29187): the Kd is 0.01 nM.
